# Patent US20170298096A1 (CANIMGUIDE THERAPEUTICS, published 2017)
# No end group written: not given here.
# Target: Artificial Cell Surface (ACS): biotinylated cell surface proteins from mononuclear cells coupled to streptavidin-sepharose
# Test: adsorption on ACS column, MALDI-TOF MS
row,Binder,Percent Absorbed [%]
1,QEPERNECFLQHK (not fully specified) [trypsin-generated albumin fragment SEQ ID NO: 207 …],25
2,YSVVLLLRLAKTYETTLEKCCAAADPHECYAKVF [Asp-N-generated albumin fragment SEQ ID NO: 223],100
3,NECFLQHK [trypsin-generated albumin fragment SEQ ID NO: 209 NECFLQHK],22
4,KVPQVSTPTLVEVSR [trypsin-generated albumin fragment SEQ ID NO: 195 …],64
5,YLYEIAR [trypsin-generated albumin fragment SEQ ID NO: 203 YLYEIAR],34
6,DDNPNLPR [trypsin-generated albumin fragment SEQ ID NO: 216 DDNPNLPR],1
7,VPQVSTPTLVEVSR [trypsin-generated albumin fragment SEQ ID NO: 197 …],59
8,LAKYICENQDSISSKLKECCEKPLLEKHCIAEVEN [Asp-N-generated albumin fragment SEQ ID NO: 226],100
9,RVTKCCTESLVNRRPCFSALEVDETYVPKEFNAETFTFHA [Asp-N-generated albumin fragment SEQ ID NO: 229],100
10,AAFTECCQAADK [trypsin-generated albumin fragment SEQ ID NO: 205 …],29
11,LKECCEKPLLEK [trypsin-generated albumin fragment SEQ ID NO: 201 …],36
12,KYLYEIAR [trypsin-generated albumin fragment SEQ ID NO: 194 KYLYEIAR],71
13,RPCFSALEVDETYVPK [trypsin-generated albumin fragment SEQ ID NO: 198 …],42
14,YICENQDSISSK [trypsin-generated albumin fragment SEQ ID NO: 214 …],3
15,FQNALLVR [trypsin-generated albumin fragment SEQ ID NO: 199 FQNALLVR],41
16,VHTECCHGDLLECADDR [trypsin-generated albumin fragment SEQ ID NO: 212 …],13
17,LCTVATLR [trypsin-generated albumin fragment SEQ ID NO: 202 LCTVATLR],35
18,SLHTLFGDK [trypsin-generated albumin fragment SEQ ID NO: 200 …],36

row,Binder,Percent Absorbed [%]
1,DHVKLVNEVTEFAKTCVA [Asp-N-generated albumin fragment SEQ ID NO: 217],100
2,DRVTKCCTESLVNRRPCFSALEV [Asp-N-generated albumin fragment SEQ ID NO: 219],87
3,ICTLSEKERQIKKQTALVELVKHKPKATKEQLKAVM [Asp-N-generated albumin fragment SEQ ID NO: 225],100
4,CCAAADPHECYAK [trypsin-generated albumin fragment SEQ ID NO: 204 …],32
5,VFLGMFLYEYARRHPDYSVVLLLRLAKTYETTLEKCCAAA [Asp-N-generated albumin fragment SEQ ID NO: 227],100
6,DDKETCFAEEGKKLVAASQAALGL [Asp-N-generated albumin fragment SEQ ID NO: 218],100
7,VFDEFKPLVEEPQNLIK [trypsin-generated albumin fragment SEQ ID NO: 196 …],60
8,DETYVPKEFNAETFTHA [Asp-N-generated albumin fragment SEQ ID NO: 220],86
9,AVMDDFAAFVEK [trypsin-generated albumin fragment SEQ ID NO: 208 …],23
10,DSISSKLKECCEKPLLEKSHCIAEVEN [Asp-N-generated albumin fragment SEQ ID NO: 221],65
11,QEPERNECFLQHK (not fully specified) [trypsin-generated albumin fragment SEQ ID NO: 211 …],18
12,YLSVVLNQLCVLHEKTPVSDRVTKCCCTESLVNRRPFSALEV [Asp-N-generated albumin fragment SEQ ID NO: 230],37
13,LDELRDEGK [trypsin-generated albumin fragment SEQ ID NO: 215 …],2
14,CCTESLVNR [trypsin-generated albumin fragment SEQ ID NO: 206 …],26
15,KLCTVATLRETYGEMADCCAKQEPERNECFLQHK [Asp-N-generated albumin fragment SEQ ID NO: 224],100
16,FKDLGEENFK [trypsin-generated albumin fragment SEQ ID NO: 213 …],8
17,DKLCTVATLRETYGEM [Asp-N-generated albumin fragment SEQ ID NO: 222],65
18,LGEENFKALVLIAFAQYLQQCPFEDHVKLVNEVTEFAKTCVA [Asp-N-generated albumin fragment SEQ ID NO: 228],100

# Target: T1, His-tagged P3028 peptide (PGE73) (human)
# T1 construct: also called His-tag-P3028; not shown: His-tag
# T1 peptide: VFDEFKPLVEEPQNLIK
# Test: PEPSCAN ELISA; peptide on card, His-tagged P3028 in solution
row,Binder,RAMPO Score [rampo units]
1,KKLDTFFVKLSLFEER (P28R variant on PEPSCAN card) [SEQ ID NO: 576],110
2,KKLDTFFVKLSDFTER (P28R variant on PEPSCAN card) [SEQ ID NO: 580],89
3,KKLDTFFVKLSEFTER (P28R variant on PEPSCAN card) [SEQ ID NO: 581],82
4,KKLDTFFVKDSLFTER (P28R variant on PEPSCAN card) [SEQ ID NO: 578],102
5,KKLDTFFVKESLFTER (P28R variant on PEPSCAN card) [SEQ ID NO: 582],81

# Target: T1, His-tagged P3028 peptide (PGE73)
# Test: as above
# Remark: another data set of the same source
# Description: After washing, the peroxidase substrate 2,2′-azine-di-3-ethylbenzthiazoline sulfonate (ABTS) and 2 μL of 3% H2O2 were added. The binding capacity of the mAb was measured as a color development at 405 nm (optical density, OD405). The color development was quantified with a charge-coupled device (CCD)—camera and an image processing system.
# The OD405-values obtained by a CCD-camera was considered as raw data values (“rampo values,” “rampo units,” or “rampo scores”). […] First the CCD-camera made a picture of the card before peroxidase coloring and then again a picture after the peroxidase coloring. […] These values were copied into an excel file and labeled as a raw data file. One follow-up manipulation was allowed. Sometimes a well can contain an air-bubble resulting in a false-positive value. If manual inspection of the cards detect an air-bubble the value are set to 0 for that well.
row,Binder,RAMPO Score [rampo units]
1,KKLDTFFVKLSLFNER (P28R variant on PEPSCAN card) [SEQ ID NO: 31],> 500
2,KKLDTFFVKLSLFPER (P28R variant on PEPSCAN card) [SEQ ID NO: 32],> 500
3,KKLDTFFVKLSLFRER (P28R variant on PEPSCAN card) [SEQ ID NO: 33],> 500
4,KKGDTFFVKLSLFTER (P28R variant on PEPSCAN card) [SEQ ID NO: 4],> 500
5,KKLDTFMVKLSLFTER (P28R variant on PEPSCAN card) [SEQ ID NO: 9],> 500
6,KKLDTFSVKLSLFTER (P28R variant on PEPSCAN card) [SEQ ID NO: 10],> 500
7,KKLDTFTVKLSLFTER (P28R variant on PEPSCAN card) [SEQ ID NO: 12],> 500
8,KKLDTFVVKLSLFTER (P28R variant on PEPSCAN card) [SEQ ID NO: 11],> 500
9,KKLDTFLVKLSLFTER (P28R variant on PEPSCAN card) [SEQ ID NO: 13],> 500
10,RKLDTFFVKLSLFTER (P28R variant on PEPSCAN card) [SEQ ID NO: 3],> 500
11,KKLDTFFVKLSMFTER (P28R variant on PEPSCAN card) [SEQ ID NO: 21],> 500
12,KKLDTFFVKLSVFTER (P28R variant on PEPSCAN card) [SEQ ID NO: 20],> 500
13,KKLDTFFVKLSQFTER (P28R variant on PEPSCAN card) [SEQ ID NO: 19],> 500
14,KKLDTFFVKLSLQTER (P28R variant on PEPSCAN card) [SEQ ID NO: 23],> 500
15,KKLDTFFVKLSLPTER (P28R variant on PEPSCAN card) [SEQ ID NO: 26],> 500
16,KKLDTFFVKLSLSTER (P28R variant on PEPSCAN card) [SEQ ID NO: 27],> 500
17,KKLDTFFVKLSLATER (P28R variant on PEPSCAN card) [SEQ ID NO: 29],> 500
18,KKLDTFFVKLSLRTER (P28R variant on PEPSCAN card) [SEQ ID NO: 30],> 500
19,KKLDTFFVKLSLHTER (P28R variant on PEPSCAN card) [SEQ ID NO: 24],> 500
20,KKLDTFFVKLSLGTER (P28R variant on PEPSCAN card) [SEQ ID NO: 28],> 500
21,KKLDTFFVKLSLNTER (P28R variant on PEPSCAN card) [SEQ ID NO: 25],> 500
22,KKLDTAFVKLSLFTER (P28R variant on PEPSCAN card) [SEQ ID NO: 7],> 500
23,KKLDTVFVKLSLFTER (P28R variant on PEPSCAN card) [SEQ ID NO: 8],> 500
24,KKLDTFFVKLMLFTER (P28R variant on PEPSCAN card) [SEQ ID NO: 16],> 500
25,KKLDTFFVKLTLFTER (P28R variant on PEPSCAN card) [SEQ ID NO: 17],> 500
26,KKLDTFFVKLHLFTER (P28R variant on PEPSCAN card) [SEQ ID NO: 18],> 500
27,KKLDTFFVKVSLFTER (P28R variant on PEPSCAN card) [SEQ ID NO: 14],> 500
